From EP4814000A1
Like-named read-outs stand apart in the source and are kept apart here.

What was measured:
[1] = molecular target: 003m-P215S-2×GCN4t (RSV); experiment: flow cytometry, Expi293F cells, Lipofectamine 2000-mRNA
[2] = molecular target: 003m-P215S (RSV); experiment: as above
[3] = molecular target: 003m-P215S-DELL-1×GCN4t (RSV); experiment: as above
[4] = molecular target: 003m-P215S-KST-1×GCN4t (RSV); experiment: as above
[5] = molecular target: 003m-P215S-1×GCN4t (RSV); experiment: as above
[6] = molecular target: 003m-P215S-NAG-1×GCN4t (RSV); experiment: as above
[7] = molecular target: wild-type RSV B F (RSV B); experiment: flow cytometry, Expi293F cells, Lipofectamine 2000-mRNA; row WT-RQ2
[8] = molecular target: 009m-DS (RSV); experiment: flow cytometry, Expi293F cells transfected with the antigen's mRNA
[9] = molecular target: 003m-ΔCys (RSV); experiment: as above
[10] = molecular target: 007m-DS (RSV); experiment: as above
[11] = molecular target: 007m-Cys (RSV); experiment: as above
[12] = molecular target: 007m-Cys-ΔCys (RSV); experiment: as above
[13] = molecular target: 010m-Cys-ΔCys (RSV); experiment: as above
[14] = molecular target: 008m-Cys-ΔCys (RSV); experiment: as above
[15] = molecular target: 008m-DS (RSV); experiment: as above
[16] = molecular target: 003m-DS (RSV); experiment: as above
[17] = molecular target: 010m-DS (RSV); experiment: as above
[18] = molecular target: 008m-Cys (RSV); experiment: as above
[19] = molecular target: 009m-Cys-ΔCys (RSV); experiment: as above
[20] = molecular target: 009m-Cys (RSV); experiment: as above
[21] = molecular target: 010m-Cys (RSV); experiment: as above
[22] = molecular target: DS-Cav1 (RSV); experiment: as above
[23] = molecular target: RSV B-003m-P215S (RSV B); experiment: flow cytometry, Expi293F cells, Lipofectamine 2000-mRNA; mRNA RQ1
[24] = molecular target: RSV B-003m-P215S-1×GCN4t-F190S (RSV B); experiment: as above
[25] = molecular target: RSV B-003m-P215S-1×GCN4t (RSV B); experiment: as above
[26] = molecular target: 003m-P215S-ΔF111-S-3N; experiment: flow cytometry, Expi293F cells, Lipofectamine 2000-mRNA
[27] = molecular target: 003m-P215S-ΔF111-1×GCN4t (RSV); experiment: as above
[28] = molecular target: 003m-P215S-S-3N; experiment: as above
[29] = molecular target: 003m-P215S-1×GCN4t (RSV); experiment: as above; remark: listed apart in the source
[30] = molecular target: 003m-P215S-ΔF111 (RSV); experiment: as above
[31] = molecular target: 003m-P215S (RSV); experiment: as above; remark: listed apart in the source
[32] = molecular target: RSV B-003m-P215S-1×GCN4t-D92E (RSV B); experiment: flow cytometry, Expi293F cells, Lipofectamine 2000-mRNA; mRNA RQ2
[33] = molecular target: RSV B-003m-P215S (RSV B); experiment: as above
[34] = molecular target: RSV B-003m-P215S-1×GCN4t-C486D-C489D (RSV B); experiment: as above
[35] = molecular target: RSV B-003m-P215S-1×GCN4t-C155S-C290S (RSV B); experiment: as above
[36] = molecular target: RSV B-003m-P215S-1×GCN4t-ori_linker (RSV B); experiment: as above
[37] = molecular target: RSV B-003m-P215S-1×GCN4t-G46S (RSV B); experiment: as above
[38] = molecular target: RSV B-003m-P215S-1×GCN4t-C102A-C362S (RSV B); experiment: as above
[39] = molecular target: RSV B-003m-P215S-1×GCN4t-F190S (RSV B); experiment: as above
[40] = molecular target: RSV B-003m-P215S-1×GCN4t (RSV B); experiment: as above
[41] = molecular target: wild-type RSV B F (RSV B); experiment: flow cytometry, Expi293F cells, Lipofectamine 2000-mRNA; row WT-RQ3

AM14-AF488 (antibody) showed an MFI [1] of 2680, an MFI [2] of 338000 and an MFI [3] of 31400. It also gave an MFI [4] of 33800, an MFI [5] of 21600 and an MFI [6] of 45700. The MFI [7] was 206000, the MFI [8] was 147000 and the MFI [9] was 8380. The MFI [10] was 144000, the MFI [11] was 610000 and the MFI [12] was 430000. It also gave an MFI [13] of 153000, an MFI [14] of 181000 and an MFI [15] of 139000. It also gave an MFI [16] of 10100, an MFI [17] of 107000 and an MFI [18] of 258000. The MFI [19] was 148000, the MFI [20] was 247000 and the MFI [21] was 333000. It also gave an MFI [22] of 122000, an MFI [23] of 496000 and an MFI [24] of 11100. For the same substance, the MFI [25] was 7340, the MFI [26] was 1.08e+06 and the MFI [27] was 12500. For the same substance, the MFI [28] was 127000, the MFI [29] was 5650 and the MFI [30] was 1.52e+06. For the same substance, the MFI [31] was 759000, the MFI [32] was 792 and the MFI [33] was 521000. The MFI [34] was 8080, the MFI [35] was 36300 and the MFI [36] was 286. The MFI [37] was 3670, the MFI [38] was 3940 and the MFI [39] was 11300. For the same substance, the MFI [40] was 5300 and the MFI [41] was 55800.
For D25-AF488 (antibody), the MFI [1] was 5120, the MFI [2] was 270000 and the MFI [3] was 35700. The MFI [4] was 31600, the MFI [5] was 32800 and the MFI [6] was 33900. The MFI [7] was 138000, the MFI [8] was 154000 and the MFI [9] was 16200. It also gave an MFI [10] of 159000, an MFI [11] of 229000 and an MFI [12] of 369000. It also gave an MFI [13] of 136000, an MFI [14] of 173000 and an MFI [15] of 150000. It also gave an MFI [16] of 37100, an MFI [17] of 118000 and an MFI [18] of 196000. It also gave an MFI [19] of 136000, an MFI [20] of 199000 and an MFI [21] of 252000. It also gave an MFI [22] of 159000, an MFI [23] of 364000 and an MFI [24] of 13500. The MFI [25] was 8770, the MFI [26] was 704000 and the MFI [27] was 14700. It also gave an MFI [28] of 148000, an MFI [29] of 8630 and an MFI [30] of 1.02e+06. For the same substance, the MFI [31] was 486000, the MFI [32] was 2480 and the MFI [33] was 379000. The MFI [34] was 8130, the MFI [35] was 67300 and the MFI [36] was 556. For the same substance, the MFI [37] was 4110, the MFI [38] was 15700 and the MFI [39] was 13100. The MFI [40] was 7110 and the MFI [41] was 36900.
